Laboratory results taken from the supplement of paper PMC10567573.

B1: STK38L (parent)
chain: FLPGGDMMTLLMKKDTLTEEETQF

Variants of: B1
Test: protein stability index of a GFP-peptide fusion (GPS, HEK-293T) (PSI 1-6); higher = more stable
Details: c terminus: a fixed tail appended
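Also: lentivirally expressed fusions sorted by FACS into six bins by GFP to DsRed ratio, PSI derived from sequencing read proportions per bin multiplied by bin number.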

Variant	protein stability index
FLPGGDMMTLLMKKDTLTEEECQF [T22C]	2.05
ILPGGDMMTLLMKKDTLTEEETQF [F1I]	3.88
FLPGKDMMTLLMKKDTLTEEETQF [G5K]	4.21
FLPGGDMMTLLYKKDTLTEEETQF [M12Y]	2.84
FLPGGDMMELLMKKDTLTEEETQF [T9E]	3.2
FLPGGDMMTLLMWKDTLTEEETQF [K13W]	1.69
FLPGGDMMTLLMKKDTLTEEETQV [F24V]	2.65
FLPGGDMMTLGMKKDTLTEEETQF [L11G]	2.89
FLPGGDMMTLLMKKDTLVEEETQF [T18V]	2.49
FLPGGDMMTLLMKKDTLTEEETQI [F24I]	2.77
FLPGGDMMTLLMQKDTLTEEETQF [K13Q]	2.42
FLPGGDMVTLLMKKDTLTEEETQF [M8V]	2.54
FLPGGDMMTLHMKKDTLTEEETQF [L11H]	3.43
FLPGGDMMTLLMKKDTLTEEVTQF [E21V]	1.71
FLPGGDMMTLWMKKDTLTEEETQF [L11W]	1.56
FLPGGDMGTLLMKKDTLTEEETQF [M8G]	3.76
FLPGGDMMTLLMKKDTLEEEETQF [T18E]	2.36
FLPGGDMMTLLGKKDTLTEEETQF [M12G]	3.72
FLPGGDMMTQLMKKDTLTEEETQF [L10Q]	3.91
FLPGGDIMTLLMKKDTLTEEETQF [M7I]	2.08
FLPIGDMMTLLMKKDTLTEEETQF [G4I]	2.35
FLPGGDMMTLLMKKQTLTEEETQF [D15Q]	1.66
FWPGGDMMTLLMKKDTLTEEETQF [L2W]	3
YLPGGDMMTLLMKKDTLTEEETQF [F1Y]	2.33

Variant	protein stability index
FLPGGDTMTLLMKKDTLTEEETQF [M7T]	3.87
FLPGGDMMTLLMKKDTPTEEETQF [L17P]	2.46
FLPGGDMMTLLLKKDTLTEEETQF [M12L]	2.35
FLPGGDMPTLLMKKDTLTEEETQF [M8P]	3.82
FLPGGDMMTLLMKKDTLTEEEYQF [T22Y]	2.75
FLPGGDMMTLLMKKDTSTEEETQF [L17S]	2.59
FLPGGDKMTLLMKKDTLTEEETQF [M7K]	3.55
FLPGGDMMTLLHKKDTLTEEETQF [M12H]	3.69
FLPGGDMMTLLMKKDTITEEETQF [L17I]	2.11
FLPGGDMMTLVMKKDTLTEEETQF [L11V]	3.18
FLPGGDMMTLLQKKDTLTEEETQF [M12Q]	3.25
FLPGGDMMTLLMKKDTLSEEETQF [T18S]	2.83
FLCGGDMMTLLMKKDTLTEEETQF [P3C]	2.17
FLPGGDMMTLLMKKDTLTEEETKF [Q23K]	2.45
FLPGGDMMTLLMFKDTLTEEETQF [K13F]	2.21
FLPGGDMMTLLMKKDTLTEEWTQF [E21W]	2.14
FLPGGDMMTLLMKKPTLTEEETQF [D15P]	1.83
FLPGSDMMTLLMKKDTLTEEETQF [G5S]	3.21
FLPGGDMMTLLMKKDTYTEEETQF [L17Y]	2
FLPGGDMMTLLCKKDTLTEEETQF [M12C]	3.16
FLPGGDMMTLLMKKDLLTEEETQF [T16L]	1.74
FLPGGDMMTLLMKKDTLTEEETQA [F24A]	2.28
FLPGGDMMTLLMKKDKLTEEETQF [T16K]	2.31
FLPGGDMMTLLPKKDTLTEEETQF [M12P]	3.5

Variant	protein stability index
FLPGGDMMTLLMKKDTLTETETQF [E20T]	1.86
FLPGGDMMTLLMKKDTLTEFETQF [E20F]	1.97
FLPGGMMMTLLMKKDTLTEEETQF [D6M]	2.54
FRPGGDMMTLLMKKDTLTEEETQF [L2R]	4.15
FLPGGDMMTLLMKKDTMTEEETQF [L17M]	2.53
FLPGGDMMTLLMKSDTLTEEETQF [K14S]	2.69
FLPGGDMMTLLMKEDTLTEEETQF [K14E]	2.88
FLPGGDMMTLLMKKDTLTEEDTQF [E21D]	2.07
FLPGGDMMTFLMKKDTLTEEETQF [L10F]	2.75
FLPGGDMMTLLMKKNTLTEEETQF [D15N]	2.23
FLPGGDMMTLLMKKDTLTREETQF [E19R]	1.78
FLPGGDMMTLLMKKHTLTEEETQF [D15H]	2.35
FLPGGDMMTLLMKKDTLAEEETQF [T18A]	2.1
KLPGGDMMTLLMKKDTLTEEETQF [F1K]	4.54
WLPGGDMMTLLMKKDTLTEEETQF [F1W]	3.49
FLPGGDMMTLLMKKDMLTEEETQF [T16M]	2
FLPGGDMMTLLMKKDTFTEEETQF [L17F]	1.96
FLPGGDMMTLLMKKDTLTENETQF [E20N]	2.5
FLPGGDMMTLLMKKDTLTEVETQF [E20V]	1.79
FGPGGDMMTLLMKKDTLTEEETQF [L2G]	2.23
FLPGGDMMTLLNKKDTLTEEETQF [M12N]	3.86
FLPGGDMMTLLMKKDTLTEEETNF [Q23N]	2.37
FLPGMDMMTLLMKKDTLTEEETQF [G5M]	3.13
FLPGGDMMTLLMKKATLTEEETQF [D15A]	1.62

Variant	protein stability index
FLPGGDQMTLLMKKDTLTEEETQF [M7Q]	3.65
FLPGGDMYTLLMKKDTLTEEETQF [M8Y]	1.94
FLPGGDMMTLLMKKDVLTEEETQF [T16V]	2.33
FLPGGDMMTLLMKKDTLTEEETQM [F24M]	2.4
FLYGGDMMTLLMKKDTLTEEETQF [P3Y]	1.68
FLPGGDMMTLLMKKITLTEEETQF [D15I]	1.75
FLPGGDMMSLLMKKDTLTEEETQF [T9S]	2.38
FLPGGDMMNLLMKKDTLTEEETQF [T9N]	3.01
FLPGGDMMTLLMKKWTLTEEETQF [D15W]	1.62
FLPGGDMMTLLMKKYTLTEEETQF [D15Y]	1.1
FLPGGDMMTLLMKKTTLTEEETQF [D15T]	1.86
FLPGGDMMTLLMKKDTLTTEETQF [E19T]	1.51
FLPGGDMMTLLMKKDTLTEECTQF [E21C]	2.01
FLTGGDMMTLLMKKDTLTEEETQF [P3T]	2.23
FLPGLDMMTLLMKKDTLTEEETQF [G5L]	3.01
FLPGGDMMTLLMKKDTLTWEETQF [E19W]	2.14
FLPKGDMMTLLMKKDTLTEEETQF [G4K]	3.27
FLPRGDMMTLLMKKDTLTEEETQF [G4R]	3.26
FLPGGDMMTLLMKKDCLTEEETQF [T16C]	2.21
FLPGGDMMTLLVKKDTLTEEETQF [M12V]	3.36
FLPGGDMMTLDMKKDTLTEEETQF [L11D]	4.19
FLPGGDMMTLLMKTDTLTEEETQF [K14T]	2.27
